Source: patent US20240238445A1, “INHIBITORS AND USES THEREOF” (NEURACLE SCIENCE CO., LTD., priority 2021, published 2024)

B1: LRRC4B (453-576): LRRC4B ectodomain fragment, amino acids 453-576 of SEQ ID NO: 2; FLAG-tagged or hFc-fused (protein)
chain: VSAVDPVAAGGTGSGGGGPGGSGGVGGGSGGYTYFTTVTVETLETQPGEEALQPRGTEKEPPGPTTDGVWGGGRPGDAAGPASSSTTAPAPRSSRPTEKAFTVPITDVTENALKDLDDVMKTTK
modifications: FLAG tag or human Fc
notes: FLAG-tagged or hFc-fused
B2: LRRC4B (498-576): LRRC4B ectodomain fragment, amino acids 498-576 of SEQ ID NO: 2 (protein)
chain: QPGEEALQPRGTEKEPPGPTTDGVWGGGRPGDAAGPASSSTTAPAPRSSRPTEKAFTVPITDVTENALKDLDDVMKTTK

How the values were obtained:
[1] = molecular target: T1, FAM19A5 protein (Homo sapiens, UniProt Q7Z5A7); assay: ELISA binding of recombinant FAM19A5 to coated hFc-conjugated LRRC4 family ectodomains, fragments or synthetic peptides; details: coated 100 nM/well, FAM19A5 up to 10 nM
Experimental: Next, to confirm the above co-immunoprecipitation results, an ELISA assay was used to measure the binding of the FAM19A5 protein to either the full-length ectodomain of members of LRRC4 protein family or various LRRC4B ectodomain protein fragments. Specifically, an ELISA plate was coated with one of the following LRRC4B ectodomain protein, which was conjugated to human Fc (100 nM/well): (1) full-length ectodomain of LRRC4 protein (amino acid residues 39-527 of SEQ ID NO: 1) (SEQ ID NO: 4); (2) full-length ectodomain of LRRC4B protein (amino acids 36-576 of SEQ ID NO: 2; i.e., construct #7 in Table 6) (SEQ ID NO: 5); (3) full-length ectodomain of LRRC4C protein (amino acids 45-527 of SEQ ID NO: 3) (SEQ ID NO: 6); (4) LRRC4B ectodomain fragment (amino acids 453-576 of SEQ ID NO: 2; i.e., construct #11 in Table 6) (SEQ ID NO: 7); (5) LRRC4B ectodomain fragment (amino acids 484-576 of SEQ ID NO: 2; i.e., construct #12 in Table 6) (SEQ ID NO: 8); (6) LRRC4B ectodomain fragment (amino acids 482-576 of SEQ ID NO: 2) (SEQ ID NO: 9); (7) LRRC4B ectodomain fragment (amino acids 482-497 of SEQ ID NO: 2) (SEQ ID NO: 10); and (8) LRRC4B ectodomain fragment (amino acids 498-576 of SEQ ID NO: 2; i.e., construct #13 in Table 6) (SEQ ID NO: 11). Then, recombinant FAM19A5 proteins (0.005, 0.01, 0.025, 0.05, 0.1, 0.25, 0.5, 1, 2.5, 5, and 10 nM) were added to the relevant wells, and the plates were incubated at 37° C. for 1 hour. Afterwards, the amount of LRRC4B-bound FAM19A5 protein was detected using HRP-conjugated anti-FAM19A5 (1-65) antibody.
As further confirmation, three synthetic polypeptides comprising amino acids 484-497 of SEQ ID NO: 2 (i.e., YTYFTTVTVETLET; SEQ ID NO: 65) were constructed: (1) FB-16 (GYTYFTTVTVETLETQ; SEQ ID NO: 17), (2) FB-20 ([…]; SEQ ID NO: 18), and (3) FB-28 ([…]; SEQ ID NO: 19). The peptides differed in their total length. The ability of these polypeptides to bind to recombinant FAM19A5 protein was assessed using an ELISA assay as described above.

[2] = test system: mouse primary cortical neurons; assay: Neurite growth of mouse primary cortical neurons in vitro; format: cell-based; details: for neurite growth / neurite outgrowth: treated days 1 and 2, assessed day 3, anti-beta-tubulin III, LRRC4B fragment 0.006 to 60 nM, versus control
Experimental: Next, primary cortical neurons (day 1 postnatal) were cultured in vitro with varying concentrations (0.006 to 60 nM) of the LRRC4B (453-576) protein fragment (i.e., amino acid residues 453-576 of SEQ ID NO: 2; SEQ ID NO: 7), and then at day 3 post-initial culture, the effect on neurite growth was assessed by immunostaining the cells with anti-beta-tubulin III antibody. Cells cultured with DMSO (“Veh”) were used as control.
Mouse hippocampal neurons were treated with LRRC4B peptides at 1 and 2 DIV to determine neurite growth. It was measured by using 3 different parameters, which are total neurites length, number of primary and secondary neurites. After the neurons were stained with beta-tubulin III at 3 DIV, neurites length and branch points were measured using Fiji (Image J, NIH, Bethesda). Individual neurons were selected by hand and these parameters were counted using the Simple neurite tracer plugin. Mouse spinal motor neurons sampled at postnatal day 1 were treated with 10 nM of NS101 and LRRC4B-peptides (dFB-dWY-JM31 and dFB-DY-JM31) at 1 and 2 DIV and immunostained with Tau-5 antibody at 3 DIV. Total neurite length and number of somas in images were measured by Neurphology Image J plugin.

[3] = molecular target: T1, FAM19A5 protein; assay: Co-immunoprecipitation of FLAG-tagged LRRC4 family deletion constructs/fragments with recombinant FAM19A5 in HEK293 cells; format: binding; details: HEK293 cells expressing FLAG-tagged construct, recombinant FAM19A5 1 μM 30 minutes; IP anti-FLAG, blot anti-FAM19A5 (3-2)
Summary of the method: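 HEK293 cells expressing FLAG-tagged LRRC4B deletion constructs or LRRC4C (aa 354-527) / LRRC4 (aa 353-527) fragments were treated with 1 μM recombinant FAM19A5 for 30 min. Lysates immunoprecipitated with anti-FLAG and immunoblotted with anti-FLAG and anti-FAM19A5 (3-2) antibodies.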

[4] = day 3, compared to the control group

T1 sequence (Q7Z5A7 44-132): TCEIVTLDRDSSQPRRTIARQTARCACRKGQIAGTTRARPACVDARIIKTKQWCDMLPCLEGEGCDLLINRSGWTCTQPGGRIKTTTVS

Row | Molecule | binding to FAM19A5 protein (ELISA, in words) [1] | neurite growth / neurite outgrowth [2] | binding to FAM19A5 protein (co-immunoprecipitation) [3] | neurite length [2, 4] | number of branching points [2, 4] | number of primary and secondary neurites [2, 4]
1 | GYTYFTTVTVETLETQPGEE [FB-20] | able to bind to recombinant FAM19A5 protein with high affinity | Increased neurite outgrowth |  |  |  | 
2 | B1 |  | increased neurite growth in a dose-dependent manner | able to bind to the FAM19A5 protein with varying degree | increased neurite length | increased number of branching points | increased number of primary and secondary neurites
3 | B2 | failed to bind to FAM19A5 |  | not able to do so |  |  | 
